From publication PMC6547619, “Development of an anti‐BAG3 humanized antibody for treatment of pancreatic cancer” (Molecular Oncology, 2019)

Legend:
Conditions in all cases: both partners purified
[1] = biological target: T1, E. coli rBAG3 (Abcam) (Homo sapiens (assumed; species of …, UniProt O95817); assay: SPR; Biacore 2000, 25 °C; AC-2 captured on an anti-mouse Fc antibody covalently coupled on a CM5 chip; rBAG3 flowed at 0.39 to 200 nM; 2-state reaction model
T1 construct: BAG3 (BCL2-associated athanogene 3), recombinant, made in E. coli, bought from Abcam; Antigen of the SPR experiments only; no catalogue number is printed; also called antigen; source: bought: Abcam (E. coli rBAG3)
T1 sequence (O95817 whole entry): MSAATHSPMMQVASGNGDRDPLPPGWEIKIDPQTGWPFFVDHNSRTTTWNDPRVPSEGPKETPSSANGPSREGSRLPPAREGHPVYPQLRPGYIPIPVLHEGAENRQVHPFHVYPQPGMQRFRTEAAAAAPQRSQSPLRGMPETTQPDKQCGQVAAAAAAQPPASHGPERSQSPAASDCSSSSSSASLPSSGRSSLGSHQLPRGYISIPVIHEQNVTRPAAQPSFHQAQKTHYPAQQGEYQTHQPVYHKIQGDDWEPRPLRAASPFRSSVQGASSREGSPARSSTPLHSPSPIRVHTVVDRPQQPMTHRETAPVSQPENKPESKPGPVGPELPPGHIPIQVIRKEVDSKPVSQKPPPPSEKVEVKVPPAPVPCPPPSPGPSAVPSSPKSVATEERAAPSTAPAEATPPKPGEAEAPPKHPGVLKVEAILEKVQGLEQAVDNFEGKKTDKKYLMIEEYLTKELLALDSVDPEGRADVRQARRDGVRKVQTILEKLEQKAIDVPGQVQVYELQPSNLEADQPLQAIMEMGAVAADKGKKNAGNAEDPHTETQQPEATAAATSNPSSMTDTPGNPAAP

[2] = biological target: T1, E. coli rBAG3 (Abcam); assay: SPR; Biacore 2000, 25 °C; humanized variants captured on an anti-human Fc antibody covalently coupled on a CM5 chip; rBAG3 flowed at variable concentrations
[3] = biological target: T2, human recombinant BAG3 protein (Homo sapiens, UniProt O95817); assay: ELISA; direct ELISA; plates coated with human recombinant BAG3 (1 μg/mL in PBS); humanized antibodies in scalar dilutions, 500 to 15.6 ng/mL; HRP anti-human IgG, O.D. 450 nm
T2 construct: the cleavage released the full-length polypeptide; The ELISA methods say only 'human recombinant BAG3 protein'; For the flow cytometry it was labelled with FITC (FluoroTag FITC conjugation kit); also called rBAG3; full-length BAG3; not shown: biotinylated tag (AviTag, from the vector pAViTag-N N-His SUMO), N-terminal, cleaved; His, N-terminal, cleaved; SUMO, N-terminal, cleaved
T2 sequence (O95817 whole entry): as above

[4] = biological target: T3, murine rBAG3 (Mus musculus, UniProt Q9JLV1); assay: immunoprecipitation; BAG3-H2L4 used to immunoprecipitate murine rBAG3; immunoblot with a rabbit polyclonal anti-BAG3
T3 construct: the cleavage released the full-length polypeptide; also called murine form of BAG3; not shown: biotinylated tag (AviTag, from the vector pAViTag-N N-His SUMO), N-terminal, cleaved; His, N-terminal, cleaved; SUMO, N-terminal, cleaved
T3 sequence (Q9JLV1 whole entry): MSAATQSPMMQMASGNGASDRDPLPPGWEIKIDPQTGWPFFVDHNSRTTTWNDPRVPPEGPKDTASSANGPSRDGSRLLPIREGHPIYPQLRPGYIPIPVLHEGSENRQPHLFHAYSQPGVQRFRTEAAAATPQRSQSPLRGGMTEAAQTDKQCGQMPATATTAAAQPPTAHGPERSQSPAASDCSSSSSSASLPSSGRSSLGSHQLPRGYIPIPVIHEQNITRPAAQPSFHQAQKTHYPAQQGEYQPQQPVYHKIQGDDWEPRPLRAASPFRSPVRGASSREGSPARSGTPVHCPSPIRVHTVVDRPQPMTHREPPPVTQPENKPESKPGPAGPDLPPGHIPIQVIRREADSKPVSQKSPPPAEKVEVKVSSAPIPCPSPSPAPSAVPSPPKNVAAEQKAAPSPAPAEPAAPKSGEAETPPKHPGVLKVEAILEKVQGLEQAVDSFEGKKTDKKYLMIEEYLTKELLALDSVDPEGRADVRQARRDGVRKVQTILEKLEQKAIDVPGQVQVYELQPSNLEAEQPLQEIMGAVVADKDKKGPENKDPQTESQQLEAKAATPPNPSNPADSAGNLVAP

Row | Kd [1] [nM] | binding result [2] | binding result [3] | binding result [4] | Binder
1 | 14.4 | – | – | – | murine anti-BAG3 antibody AC-2 (antibody, V domains shown, murine heavy chain; murine light chain; also called mAb AC-2; anti-BAG3 clone AC-2; source: mouse hybridoma clone AC-2 (supernatant in the peptide ELISA)) VH: EVQLQQSGAELVKPGASVKLSCTASGFNIKDTYMYWVKQRPEQGLEWIGGVDPANGNTRYDPKFQGKATLTADTSSSTAYLQLSSLTSEDTAVYYCGRDGAMDYWGQGTSVTVSS VL: DIVMSQSPSSLAVSVGEKVTMSCKSSQSLLYSSNQKNYLAWHQQKPGQSPKLLIYWASTRESGVPDRFTGSGSGTDFTLTISSVKAEDLAIYYCQQYYTYPLTFGAGTKLELK
2 | – | binds | binds | binds | BAG3-H2L4 (antibody, V domains shown, humanized heavy chain variant H2: CDRs of AC-2 (humanized light chain variant L4: CDRs of AC-2 (IgG1, kappa)); also called humanized anti-BAG3 antibody; humanized BAG3-H2L4 antibody; source: CHO, transiently transfected, purified from supernatant (Protein A FPLC), Evitria AG) VH: QVQLVQSGAEVKKPGASVKVSCKASGFNIKDTYMYWVRQAPGQGLEWMGGVDPANGNTRYDPKFQGRVTLTRDTSTSTVYMELSSLRSEDTAVYYCGRDGAMDYWGQGTLVTVSS VL: DIVMTQSPDSLAVSLGERATMSCKSSQSLLYSSNQKNYLAWHQQKPGQPPKLLIYWASTRESGVPDRFSGSGSGTDFTLTISSLQAEDLAIYYCQQYYTYPLTFGAGTKLEIK
3 | – | binds | binds | – | BAG3-H4L2 (antibody, V domains shown, humanized heavy chain variant H4: CDRs of AC-2 (humanized light chain variant L2: CDRs of AC-2 (IgG1, kappa)); source: CHO, transiently transfected, purified from supernatant (Protein A FPLC), Evitria AG) VH: EVQLVQSGAEVKKPGATVKISCKVSGFNIKDTYMYWVQQAPGKGLEWMGGVDPANGNTRYDPKFQGRVTITADTSTDTAYMELSSLRSEDTAVYYCARDGAMDYWGQGTLVTVSS VL: not shown
